From patent publication US20090311257A1 (XOMA TECHNOLOGY, published 2009)
Residue numbers refer to the chain shown, from its start. Where no end group is shown, it is not given here.

T1: CCK2R on the CCK2R overexpressing cell line AGS-TR (UniProt P32239 1-447, limits assumed)
T1 sequence (looked up): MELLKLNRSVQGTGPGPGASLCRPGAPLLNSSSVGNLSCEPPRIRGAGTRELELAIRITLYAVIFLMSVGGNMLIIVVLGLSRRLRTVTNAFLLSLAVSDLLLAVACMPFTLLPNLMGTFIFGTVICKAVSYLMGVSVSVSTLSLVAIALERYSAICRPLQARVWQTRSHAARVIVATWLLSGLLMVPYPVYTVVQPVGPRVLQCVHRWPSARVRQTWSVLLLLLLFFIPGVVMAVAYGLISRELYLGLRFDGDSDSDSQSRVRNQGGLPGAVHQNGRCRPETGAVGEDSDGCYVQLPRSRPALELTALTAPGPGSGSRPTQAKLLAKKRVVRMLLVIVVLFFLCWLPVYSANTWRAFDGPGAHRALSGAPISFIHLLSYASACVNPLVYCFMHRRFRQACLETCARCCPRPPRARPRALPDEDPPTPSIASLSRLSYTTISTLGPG

T2: biotinylated 10 amino acid peptide from the N terminal portion of Gastrin 17 (human, UniProt P01350 76-85, limits assumed, ends and bridges not checked)
T2 construct: domain: 10 amino acid peptide from the N terminal portion of Gastrin 17; Panning target; also called biotinylated peptide; biotinylated peptides
T2 peptide (looked up): QGPWLEEEEE-biotin

B1: XPA065 (phage display-derived antibody fragment) (antibody, V domains shown)
VH: EVQLVQSGAEVKKPGSSVTVSCKASGGTFDKYAIGWVRQAPGQGLEWMGRIIPTLDLANSAQKFQDRVTITADKFTTTVYMELTNLRPEDTAMYYCTRDPLYNWSGSYWGRGTMVTVSS
VL: QAVLTQPSSLSASPGTSASLTCTLRSGINVGSYRIYWYQQRPGSPPQYLLRYKSDSDKQQGSGVPSRFSGSKDASANAGVLFISGLQSDDEADYYCMIWHNSAWVFGGGTKLTVL
B2: human gastrin (h-G17) (ligand, UniProt P01350 76-92, looked up)
peptide: QGPWLEEEEEAYGWMDF
B3: XPA061 (phage display-derived antibody fragment) (antibody, V domains shown)
VH: QVQLVQSGAEVKKPGSSVKVSCKISGGTFSSHAIGWVRQAPGQGLEWIGRIIPSLDLDNSAPKFQDRVTITADKFTNTAYMELRNLRPEDTAFYYCTGDPLYNWTGAHWGRGTMVTVSS
VL: QAVLTQPSSLSASPGASASLTCTLRSDINVGTYRIYWYQQKSGSPPQYLLRYRSDSDKQQGSGVPSRFSGSKDASANAGILLISGLQSEDEADYYCMIWHSSAWVFGGGTKVTVL
B4: XPA081 (phage display-derived antibody fragment) (antibody, V domains shown)
VH: B1 VH with T54S, A58D, E82K, T84S, M93I, N103Q, R111K, M114L
VL: B3 VL with S42P, R53K, E89G, E91G, V112L
B5: XPA067 (parental antibody fragment) (antibody, V domains shown)
VH: B1 VH
VL: B3 VL with D27G, S42P, R53K, V112L
notes: also called parental (XPA067)
B6: a monoclonal antibody with affinity of about 10^-9 M (anti-gastrin, not named in the sentence) (antibody, V domains shown)
VH: B1 VH
VL: B3 VL with D27G, S42P, R53K, V112L
B7: XPA061 reformatted whole human IgG (antibody, V domains shown)
VH: B3 VH
VL: B3 VL
B8: XPA067 reformatted whole human IgG (antibody, V domains shown)
VH: B1 VH
VL: B3 VL with D27G, S42P, R53K, V112L
notes: also called parent antibody XPA067; parental a-gastrin mAb
B9: XPA063 (phage display-derived antibody fragment) (antibody, V domains shown)
VH: B1 VH with T54S, A58D, E82K, T84S
VL: B3 VL with D27G, S42P, R53K, V112L

Key:
human gastrin (h-G17) [1] = target: B2; assay: cell-based or functional assay
[2] = target: T1, CCK2R on the CCK2R overexpressing cell …; assay: cell-based or functional assay
[3] = target: T2, biotinylated 10 amino acid peptide from …; assay: SPR (BIACORE 2000), antibody over low-density biotinylated peptide on streptavidin chip; from kinetic rate constants; parental fragment, Table 3 comparator to the matured fragments
Description: (§1) Affinities of the parental (XPA067) and matured antibody fragments were determined by surface plasmon resonance using a BIACORE® 2000. Affinity constants were calculated from the kinetic rate constants for antibody binding to biotinylated peptide immobilized on a Streptavidin sensor chip.
(§2) A very low density of peptide was immobilized in order to avoid bivalent binding by the antibodies to the sensor chip. Antibodies were tested in triplicate at six concentrations of three-fold serial dilutions. Data were analyzed using BiaEval Software.

human gastrin (h-G17) [4] = target: B2; assay: summary sentence of the filing's own data; method not given; antibody not named
human gastrin (h-G17) [5] = target: B2; assay: cell-based or functional assay
human gastrin (h-G17) [6] = target: B2; assay: KD measurement of reformatted IgG; method and antigen form not stated in the example
[7] = target: T2, biotinylated 10 amino acid peptide from …; assay: SPR, measured as described previously (BIACORE, biotinylated peptide on streptavidin chip); reformatted IgG
Description: as §1, §2
Antibody affinity was measured as described previously.

human gastrin (h-G17) [8] = target: B2; assay: KD measurement of reformatted IgG; method and antigen form not stated in the example; reformatted IgG, Table 2 lead selection

B1
Ca flux neutralization at 2x molar excess (human gastrin (h-G17) [1]): < 20%
Ca flux neutralization at roughly 100 fold molar excess over gastrin (1 nM) (human gastrin (h-G17) [1]): ~80%

B2
calcium flux EC50 (AGS-TR cells) [2]: 1 nM

B3
Ca flux neutralization at 2x molar excess (human gastrin (h-G17) [1]): ~70%
Ca flux neutralization at roughly 100 fold molar excess over gastrin (1 nM) (human gastrin (h-G17) [1]): ~80%

B4
Ca flux neutralization at 2x molar excess (human gastrin (h-G17) [1]): < 20%
Ca flux neutralization at roughly 100 fold molar excess over gastrin (1 nM) (human gastrin (h-G17) [1]): ~80%

B5
Kd [3]: ~5 nM
Ca flux neutralization at 2x molar excess (human gastrin (h-G17) [1]): < 20%
Ca flux neutralization at roughly 100 fold molar excess over gastrin (1 nM) (human gastrin (h-G17) [1]): ~80%

B6
Kd (human gastrin (h-G17) [4]): ~1 nM

B7
Ca Flux IC50 (human gastrin (h-G17) [5]): 1.34 nM
pERK IC50 (nM) (human gastrin (h-G17) [5]): 0.42 nM
Kd (human gastrin (h-G17) [6]): 9.9 nM

B8
Ca Flux IC50 (human gastrin (h-G17) [5]): 0.76 nM
pERK IC50 (nM) (human gastrin (h-G17) [5]): 0.56 nM
Kd [7]: ~5 nM
Kd (human gastrin (h-G17) [8]): 3.9 nM

B9
Ca flux neutralization at 2x molar excess (human gastrin (h-G17) [1]): < 20%
Ca flux neutralization at roughly 100 fold molar excess over gastrin (1 nM) (human gastrin (h-G17) [1]): > 70%
